What was measured:
[1] = test system: FVIII derivatives
[2] = test system: T1, dBN(64-56) FVIII derivative
T1 sequence: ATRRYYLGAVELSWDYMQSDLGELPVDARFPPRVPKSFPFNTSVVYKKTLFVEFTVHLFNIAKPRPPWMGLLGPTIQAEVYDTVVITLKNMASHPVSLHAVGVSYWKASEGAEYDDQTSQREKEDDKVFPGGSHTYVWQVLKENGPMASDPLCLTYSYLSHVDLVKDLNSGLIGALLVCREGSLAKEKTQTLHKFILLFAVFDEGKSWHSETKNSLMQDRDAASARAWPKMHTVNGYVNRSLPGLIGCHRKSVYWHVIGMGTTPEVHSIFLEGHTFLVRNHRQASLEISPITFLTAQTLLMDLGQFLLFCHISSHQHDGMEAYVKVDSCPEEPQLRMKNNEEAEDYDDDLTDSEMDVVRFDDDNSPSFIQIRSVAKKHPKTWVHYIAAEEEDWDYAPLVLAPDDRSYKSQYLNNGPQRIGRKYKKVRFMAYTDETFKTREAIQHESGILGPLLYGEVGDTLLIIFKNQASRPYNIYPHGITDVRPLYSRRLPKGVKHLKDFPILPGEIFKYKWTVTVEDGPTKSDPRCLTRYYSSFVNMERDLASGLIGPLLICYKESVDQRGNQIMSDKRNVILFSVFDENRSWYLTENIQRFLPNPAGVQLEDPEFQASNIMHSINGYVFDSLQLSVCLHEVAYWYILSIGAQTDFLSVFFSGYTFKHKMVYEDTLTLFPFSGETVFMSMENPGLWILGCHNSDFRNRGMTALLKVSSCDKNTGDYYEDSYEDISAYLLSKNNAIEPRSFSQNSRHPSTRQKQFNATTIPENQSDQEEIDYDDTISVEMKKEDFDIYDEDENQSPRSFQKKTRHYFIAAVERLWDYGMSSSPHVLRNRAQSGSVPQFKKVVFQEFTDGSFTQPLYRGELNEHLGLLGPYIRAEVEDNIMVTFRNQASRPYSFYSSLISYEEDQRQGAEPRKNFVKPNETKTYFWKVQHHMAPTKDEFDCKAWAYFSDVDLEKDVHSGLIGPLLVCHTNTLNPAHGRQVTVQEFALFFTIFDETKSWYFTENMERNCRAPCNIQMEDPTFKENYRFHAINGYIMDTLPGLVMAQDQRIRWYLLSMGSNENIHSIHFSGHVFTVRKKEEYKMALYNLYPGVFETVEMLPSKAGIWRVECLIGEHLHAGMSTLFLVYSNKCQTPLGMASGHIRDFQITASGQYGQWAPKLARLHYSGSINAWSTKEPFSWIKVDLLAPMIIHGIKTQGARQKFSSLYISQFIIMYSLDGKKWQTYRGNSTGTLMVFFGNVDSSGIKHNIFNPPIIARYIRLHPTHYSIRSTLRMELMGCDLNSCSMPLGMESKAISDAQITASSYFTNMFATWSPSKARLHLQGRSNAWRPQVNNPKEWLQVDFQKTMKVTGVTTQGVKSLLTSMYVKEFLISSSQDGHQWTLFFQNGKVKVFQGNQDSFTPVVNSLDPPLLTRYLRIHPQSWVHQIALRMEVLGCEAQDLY

[3] = test system: T2, dBN(64-53) FVIII derivative
T2 sequence: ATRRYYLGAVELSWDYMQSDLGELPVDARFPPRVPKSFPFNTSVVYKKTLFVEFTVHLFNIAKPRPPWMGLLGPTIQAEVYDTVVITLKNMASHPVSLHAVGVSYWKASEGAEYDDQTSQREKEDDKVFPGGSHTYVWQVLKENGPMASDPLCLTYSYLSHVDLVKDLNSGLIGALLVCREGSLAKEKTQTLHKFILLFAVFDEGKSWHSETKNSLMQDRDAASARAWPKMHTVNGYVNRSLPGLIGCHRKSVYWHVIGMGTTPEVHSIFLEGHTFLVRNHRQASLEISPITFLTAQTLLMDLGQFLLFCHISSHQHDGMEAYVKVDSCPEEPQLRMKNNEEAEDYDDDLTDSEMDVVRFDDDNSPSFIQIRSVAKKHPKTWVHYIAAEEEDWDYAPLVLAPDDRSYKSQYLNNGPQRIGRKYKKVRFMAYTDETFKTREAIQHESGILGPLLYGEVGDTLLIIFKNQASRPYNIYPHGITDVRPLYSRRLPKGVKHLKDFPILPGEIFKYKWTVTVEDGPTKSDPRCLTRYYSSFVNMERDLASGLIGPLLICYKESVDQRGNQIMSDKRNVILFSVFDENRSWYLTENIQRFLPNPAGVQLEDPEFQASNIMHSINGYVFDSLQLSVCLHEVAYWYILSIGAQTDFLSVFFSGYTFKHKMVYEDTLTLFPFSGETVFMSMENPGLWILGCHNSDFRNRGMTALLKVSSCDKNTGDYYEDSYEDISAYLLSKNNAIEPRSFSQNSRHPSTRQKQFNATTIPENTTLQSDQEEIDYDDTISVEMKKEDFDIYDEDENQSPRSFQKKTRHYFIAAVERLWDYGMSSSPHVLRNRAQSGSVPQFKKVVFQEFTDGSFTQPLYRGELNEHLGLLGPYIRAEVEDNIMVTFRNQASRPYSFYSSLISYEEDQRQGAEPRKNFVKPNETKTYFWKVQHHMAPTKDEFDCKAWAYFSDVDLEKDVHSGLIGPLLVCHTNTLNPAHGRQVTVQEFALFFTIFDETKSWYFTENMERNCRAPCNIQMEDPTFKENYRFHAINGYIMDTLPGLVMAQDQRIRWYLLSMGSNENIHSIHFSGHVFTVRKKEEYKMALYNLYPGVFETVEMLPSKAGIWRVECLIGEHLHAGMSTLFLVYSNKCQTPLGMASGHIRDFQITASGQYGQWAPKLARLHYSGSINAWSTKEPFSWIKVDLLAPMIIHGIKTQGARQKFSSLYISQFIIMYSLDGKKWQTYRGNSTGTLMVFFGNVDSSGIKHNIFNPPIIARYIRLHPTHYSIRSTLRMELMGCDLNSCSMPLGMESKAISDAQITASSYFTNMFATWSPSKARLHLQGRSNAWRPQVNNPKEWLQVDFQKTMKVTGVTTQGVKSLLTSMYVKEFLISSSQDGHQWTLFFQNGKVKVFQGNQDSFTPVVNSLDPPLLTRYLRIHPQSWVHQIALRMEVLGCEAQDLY

[4] = target: Some FVIII derivatives; assay: cell-based or functional assay

Substance | thrombin cleavage of 35S-labeled immunoprecipitated protein, SDS-PAGE [1] | activation by thrombin, measured in a classical coagulation test (APTT) [2] | activation by thrombin, measured in a classical coagulation test (APTT) [3] | activation by thrombin, measured in a classical coagulation test (APTT) [4]
thrombin | Analysis of the radiolabeled protein after thrombin digestion indicated a normal appearance of the 73 kD, and 50 and 40 kd fragments | are activated in the same manner as rh FVIII | are activated in the same manner as rh FVIII | 
thrombin (enzyme) |  |  |  | 7 fold
